Measured values as given in paper PMC10119634 (Blood Advances, 2022).

Target: T1, GPVIex (nonglycosylated human GPVI extracellular domain residues 1 to 183) (Homo sapiens)
T1 chain: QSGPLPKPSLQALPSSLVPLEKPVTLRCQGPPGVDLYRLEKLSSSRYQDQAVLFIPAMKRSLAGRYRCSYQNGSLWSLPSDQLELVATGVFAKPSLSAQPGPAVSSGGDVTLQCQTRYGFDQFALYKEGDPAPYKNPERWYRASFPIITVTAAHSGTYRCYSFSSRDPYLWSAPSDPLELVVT
Assay: crystal structure

binding result: binds
B1: Glenzocimab (Fab, V domains shown)
VH: QVQLVQSGAEVKKPGASVKVSCKASGYTFTSYNMHWVRQAPGQGLEWMGGIYPGNGDTSYNQKFQGRVTMTRDTSTSTVYMELSSLRSEDTAVYYCARGTVVGDWYFDVWGQGTLVTVSS
VL: DIQMTQSPSSLSASVGDRVTITCRSSQSLENSNGNTYLNWYQQKPGKAPKLLIYRVSNRFSGVPSRFSGSGSGTDFTFTISSLQPEDIATYYCLQLTHVPWTFGQGTKVEIT
